Experimental data from publication PMC4690531 (Cell, 2010).
Entries after “also recorded” stand apart in the source; their conditions may differ. No end group written: not given here.

What was measured:
[1] = target: coexpressed MLL1 PHD3-Bromo cassette (residues 1566–1784, with deletion of 1666–1702 ZA loop segment) (human) (UniProt Q03164); experiment: ITC
[2] = system: HOXC8 expression in 293T cells; experiment: HOXC8 expression in transfected 293T cells; assay type: cell-based; settings: overexpression, real-time PCR, empty vector control
HOXC8 = experiment: Anti-HA ChIP of CyP33 binding at HOXC8; assay type: cell-based; settings: 293T cells, typical for at least three independent experiments
H3 acetylation at HOXA9 = experiment: ChIP with anti-H3 pan acetyl; assay type: cell-based; settings: 293T cells, overexpression, anti-H3 pan acetyl (AcH3), typical for at least three independent experiments
[3] = system: HOXA9 expression in 293T cells; experiment: HOXA9 expression in transfected 293T cells; assay type: cell-based; settings: overexpression, real-time PCR, empty vector control
MLL1 PHD3-Bromo cassette [4] = target: T1, MLL1 PHD3-Bromo cassette (Homo sapiens, UniProt Q03164, DEL1666-1702); experiment: Gel filtration complex formation with MLL1 PHD3-Bromo cassette; assay type: binding; settings: for binding of CyP33 mutants to PHD3-Bromo: in vitro, Figure 4, lines 7 and 11
HOXA9 = experiment: Anti-HA ChIP of CyP33 binding at HOXA9; assay type: cell-based; settings: 293T cells, typical for at least three independent experiments
[5] = target: complex of MLL1 PHD3-Bromo cassette and full-length CyP33 (UniProt Q03164); experiment: ITC
MLL1 PHD3-Bromo cassette [6] = target: T1, MLL1 PHD3-Bromo cassette; experiment: ITC binding of H3K4me peptides to coexpressed MLL1 PHD3-Bromo cassette; settings: vs H3K4me3 peptide without added Ala
H3 acetylation at HOXC8 = experiment: ChIP with anti-H3 pan acetyl; assay type: cell-based; settings: 293T cells, overexpression, anti-H3 pan acetyl (AcH3), typical for at least three independent experiments
[7] = system: MLL1 PHD3-Bromo cassette (1566–1784); experiment: 1H,15N-HSQC titration of MLL1 PHD3-Bromo cassette with acetyllysine peptides; assay type: binding; settings: five equivalents of H4(7-17)K12ac or H4(14-19)K16ac, H3K23ac and H3K27ac data not shown
[8] = system: MLL1 Bromo alone (1639–1784); experiment: 1H,15N-HSQC titration of MLL1 Bromo alone with acetyllysine peptides; assay type: binding; settings: five equivalents of H4(7-17)K12ac or H4(14-19)K16ac, H3K23ac and H3K27ac data not shown
[9] = system: HOXC8 locus in K562 cells; settings: ref Fair et al., 2001; cited from earlier work
[10] = target: MLL1 PHD3-Bromo Y1581A mutant (human, UniProt Q03164 1566-1665; Q03164 1703-1784, Y1581A); experiment: ITC
[11] = target: MLL1 PHD3-Bromo Q1587A mutant (human, UniProt Q03164 1566-1665; Q03164 1703-1784, Q1587A); experiment: ITC
CyP33 RRM (2–82) = target: T2, CyP33 RRM (2–82) (UniProt Q9UNP9 2-82); experiment: NMR structure
T2 sequence (looked up): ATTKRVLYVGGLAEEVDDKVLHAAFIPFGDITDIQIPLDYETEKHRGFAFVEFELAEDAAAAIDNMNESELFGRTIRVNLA

AU-rich RNAs = settings: ref Mi et al., 1996; Wang et al., 2008; cited from earlier work
MLL2 PHD3 = experiment: Gel filtration complex formation with MLL2 PHD3; assay type: binding
MLL1 (1566–1639) = experiment: NMR monitoring of Pro1629 cis-to-trans transition; assay type: binding; settings: 1H,13C-HSQC
MLL1 PHD3 M1606D mutant = experiment: Complex formation with MLL1 PHD3 M1606D; assay type: binding; settings: Figure 4, line 10
MLL2 PHD3 D1375M mutant = experiment: Complex formation with MLL2 PHD3 D1375M; assay type: binding; settings: Figure 4, line 13
[12] = system: MLL1 PHD3-Bromo mutant, where Pro1629 was replaced by Ala; experiment: Complex formation with MLL1 PHD3-Bromo Pro1629 to Ala mutant; assay type: binding; settings: in the absence of CyP33 PPIase domain
MLL1 PHD3 domain alone = experiment: Gel filtration complex formation with MLL1 PHD3 alone; assay type: binding
MLL1 PHD3 = experiment: 1H,15N-HSQC Trp1594 indole resonance on sequential addition; assay type: binding; settings: H3K4me3 first (binary complex), then CyP33 RRM (ternary complex)
CyP33 RRM (1–82) = target: T3, CyP33 RRM (1–82) (UniProt Q9UNP9 1-82); experiment: NMR titration
T3 sequence (looked up): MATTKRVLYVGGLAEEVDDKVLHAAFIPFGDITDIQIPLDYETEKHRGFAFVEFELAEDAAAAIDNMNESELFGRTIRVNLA

## H3K4me3 peptide with an Ala-Ala-Ala tripeptide added at the N terminus
[1]
  Kd: 64 µM

## H3K4me3 peptide with a single Ala added at the N terminus
[1]
  Kd: 26 µM

## H3(1-15)K4me1 peptide (from UniProt P68431 2-16)
[1]
  Kd: 53 µM

## F196E/M197E: CyP33 with F196E/M197E double mutation in the PPIase domain
[2]
  HOXC8 repression: did not cause any repression of either HOX gene; also recorded: not in cells expressing the F51D (green bars)or F196E/M197E
HOXC8
  CyP33 binding to HOXC8: bound to HOXA9 and HOXC8
H3 acetylation at HOXA9
  H3 acetylation at HOXA9: not in cells expressing the F51D (green bars) and F196E/M197E
[3]
  HOXA9 repression: did not cause any repression of either HOX gene; also recorded: not in cells expressing the F51D (green bars)or F196E/M197E
MLL1 PHD3-Bromo cassette [4]
  binding of CyP33 mutants to PHD3-Bromo: reduced the binding between CyP33 and PHD3-Bromo
HOXA9
  CyP33 binding to HOXA9: bound to HOXA9 and HOXC8

## H3(1-15)K4me2 peptide (from UniProt P68431 2-16)
[1]
  Kd: 6.9 µM
[5]
  Kd: 15.2 µM

## C[C@H](N)C(=O)N[C@@H](C)C(=O)N[C@@H](CCCNC(=N)N)C(=O)N[C@H](C(=O)N[C@@H](CCCC[N+](C)(C)C)C(=O)N[C@@H](CCC(N)=O)C(=O)N[C@H](C(=O)N[C@@H](C)C(=O)N[C@@H](CCCNC(=N)N)C(=O)N[C@@H](CCCCN)C(=O)N[C@@H](CO)C(=O)N[C@H](C(=O)NCC(=O)NCC(=O)N[C@@H](CCCCN)C(=O)N[C@@H](C)C(=O)O)[C@@H](C)O)[C@@H](C)O)[C@@H](C)O [single Ala]
MLL1 PHD3-Bromo cassette [6]
  increase of dissociation constant on N-terminal extension: 6 fold

## H3(1-15)K4me3 peptide (from UniProt P68431 2-16)
[1]
  Kd: 4.3 µM
[5]
  Kd: 11.6 µM

## F51D: CyP33 with F51D mutation in the RRM domain
[2]
  HOXC8 repression: did not cause any repression of either HOX gene; also recorded: not in cells expressing the F51D; also recorded: unable to deacetylate and repress target genes
HOXC8
  CyP33 binding to HOXC8: variably reduced CyP33 binding; also recorded: only partially disrupted in its ability to bind to HOXA9 and HOXC8
H3 acetylation at HOXA9
  H3 acetylation at HOXA9: not in cells expressing the F51D; also recorded: unable to deacetylate
[3]
  HOXA9 repression: did not cause any repression of either HOX gene; also recorded: not in cells expressing the F51D; also recorded: unable to deacetylate and repress target genes
H3 acetylation at HOXC8
  H3 acetylation at HOXC8: unable to deacetylate
MLL1 PHD3-Bromo cassette [4]
  binding of CyP33 mutants to PHD3-Bromo: sufficient to abolish the binding between CyP33 and MLL1 PHD3-Bromo
HOXA9
  CyP33 binding to HOXA9: variably reduced CyP33 binding; also recorded: only partially disrupted in its ability to bind to HOXA9 and HOXC8

## H4(7-17)K12ac: acetylated histone H4 peptide
[7]
  complexation shifts, PHD3-Bromo cassette: did not observe any complexation shifts
[8]
  complexation shifts, Bromo alone: did not observe any complexation shifts

## C[C@H](N)C(=O)N[C@@H](C)C(=O)N[C@@H](C)C(=O)N[C@@H](C)C(=O)N[C@@H](CCCNC(=N)N)C(=O)N[C@H](C(=O)N[C@@H](CCCC[N+](C)(C)C)C(=O)N[C@@H](CCC(N)=O)C(=O)N[C@H](C(=O)N[C@@H](C)C(=O)N[C@@H](CCCNC(=N)N)C(=O)N[C@@H](CCCCN)C(=O)N[C@@H](CO)C(=O)N[C@H](C(=O)NCC(=O)NCC(=O)N[C@@H](CCCCN)C(=O)N[C@@H](C)C(=O)O)[C@@H](C)O)[C@@H](C)O)[C@@H](C)O [Ala-Ala-Ala tri-peptide]
MLL1 PHD3-Bromo cassette [6]
  increase of dissociation constant on N-terminal extension: 15 fold

## H4(14-19)K16ac: acetylated histone H4 peptide
[7]
  complexation shifts, PHD3-Bromo cassette: did not observe any complexation shifts
[8]
  complexation shifts, Bromo alone: did not observe any complexation shifts

## CyP33: cyclophilin with N-terminal RRM and C-terminal PPIase domain; FLAG-HA-tagged in 293T experiments
[2]
  HOXC8 repression: reduced
HOXC8
  CyP33 binding to HOXC8: bound to HOXA9 and HOXC8
[3]
  HOXA9 repression: reduced
[9]
  repression of HOXC8 locus: repressor of the HOXC8 locus
HOXA9
  CyP33 binding to HOXA9: bound to HOXA9 and HOXC8

## ARTK(Me3)QTARKSTGGKA (peptide, UniProt P68431 2-16, looked up) [H3(1-15)K4me3 peptide]
[10]
  binding result: binds
[11]
  binding result: binds

## MMQCGKCDRWVHSKCENLSDEMYEILSNLPESVAYTCVNCTERH (domain or fragment, human, UniProt Q03164 1585-1628, looked up) [interacting segment of MLL1 PHD3 (1585–1628)]
CyP33 RRM (2–82)
  binding result: binds

B1: CyP33 RRM: RRM domain (1–82) of CyP33 (protein)
chain: MATTKRVLYVGGLAEEVDDKVLHAAFIPFGDITDIQIPLDYETEKHRGFAFVEFELAEDAAAAIDNMNESELFGRTIRVNLA
AU-rich RNAs
  RNA preference: some preference for AU-rich RNAs
MLL2 PHD3
  binding to MLL2 PHD3: does not bind CyP33 RRM
MLL1 (1566–1639)
  His1628-Pro1629 peptide bond configuration change: transits from cis-to-trans configuration upon interaction with CyP33 RRM
MLL1 (1566–1639); major cross peak 25.3 ppm (cis) in free state
  Pro1629 Cγ chemical shift upon addition: 27.5 ppm
MLL1 PHD3-Bromo cassette [4]; gel filtration
  complex formation with PHD3-Bromo cassette: not with the PHD3-Bromo cassette
MLL1 PHD3 M1606D mutant
  complex formation with MLL1 PHD3 M1606D: completely disrupted its complex formation with CyP33 RRM
MLL2 PHD3 D1375M mutant
  binding to MLL2 PHD3 D1375M: converted MLL2 PHD3 to a CyP33 RRM binding partner
[12]
  interaction with PHD3-Bromo P1629A: interacted with a PHD3-Bromo mutant
MLL1 PHD3 domain alone
  complex formation with PHD3 alone: formed a complex with the PHD3 domain alone
MLL1 PHD3
  Trp1594 indole resonance shift on sequential addition: upfield shift

B2: MLL1 (1566–1639) (domain or fragment, human, UniProt Q03164 1566-1639, looked up)
chain: GNFCPLCDKCYDDDDYESKMMQCGKCDRWVHSKCENLSDEMYEILSNLPESVAYTCVNCTERHPAEWRLALEKE
CyP33 RRM (1–82)
  binding result: binds
